Test results from patent US20170296650A1 (Novartis, published 2017).

B1: 9I6 (antibody, V domains shown)
VH: EVQLVQSGAEVKKPGESLKISCRESGDTFPAYWIAWVRQMPGKGLEWMGIIYPIDSETTYSPSFQGQVTISADKSINTAYLQWSSLKASDSAIYYCARGTSTGLREAFHIWGQGTMVTVSS
VL: DVVMTQSPLSLAVTLGQPAYISCRSSQSLGYSDGNTYLNWFQQRPGQSPRRLIYEVSNRDSGVPDRFSGSGSGTDFTLKISRVEAEDVGTYYCMQGTHWPPMCSFGQGTKLEIK
notes: human IgG; also called 9I6-biotin; 916
B2: 8C15 (antibody, V domains shown)
VH: QVQLQESGPGLVKPSETLSLTCTVSGGSIRSYYWSWIRQPPGKGLEWIGHIYYSGNTNYSPSLQSRVTISLDTPKNQFSLRLSSVTAADTAVYYCARHDVIVVRGVFDVWGQGTVVTVSS
VL: QSALTQPASVSGSPGQSITISCTGTSSDIGTYNLVSWYQQHPGKAPKVLIYDGSKRPSGVSSRFSASKSGNTASLTISGLQAEDETDYYCCSYAGTSDFFVVFGGGTKLTVL
notes: human IgG; also called 8C15-biotin
B3: 2C12 (antibody, V domains shown)
VH: QITLRESGPTLVKPTQTLTLTCTFSGFSLNTNGVGVGWIRQPPGKALEWLALIYWNGNEGYSPSLKSRLTITKDTSKNQVVLTMTNMDPVDTATYYCVHWPQGLTTVTRLAFDIWGQGTMVTVSS
VL: QSALTQPRSVSGSPGQSVTISCTGTTSDVGRYNFVSWYQQHPGKAPKLLMYDVSQRPSGVPSRFSGSKSGNTASLTISGLQAEDEAVFYCCSYAGGNFFSYVFGTGTKVTVL
notes: human IgG; also called 2C12-biotin
B4: 2B11 (antibody, V domains shown)
VH: AVRLVESGGGLAQPGRSLRLSCQVSGFTFGSYEMNWVRQAPGKGLEWIAYIDFTGSTIYYADSVKGRFTISRNTARNSLYLQMNSLRVEDTAVYYCVRDAGRWGTSWYYFDYWGQGTRVTVSP
VL: QSVLTQPPSVSGAPGQRVTISCTGISSNIGAGYDIHWYQQIPGKAPKLLVYGNNNRPSGVPDRFSGSKSGTSVSLAITGLQVEDEADYYCQSYDNSLNGWVFGGGTRLTVL
notes: human IgG; also called 2B11-biotin
B5: 7I13 (antibody, V domains shown)
VH: QVQLVESGGGVVQPGRSLRLSCAASGFTFSNYGMHWVRQGPGKGLEWVAVISYDASSKYYTDSVQGRFTISRDNSKNTLFLQMNSLRGEDTAVYYCAKALRYLDWFLSDPFDYWGQGTLVTVSS
VL: EIVLTQSPGTLSLSPGERATLSCRASQSVSSDFLAWYQQKPGQAPRLLIYGASSRATGIPDRFSGSGSGTDFTLTISRLEPEDFAVYYCQQYAASPPFGQGTRLEIK
notes: human IgG; also called 7113
B6: 8J16 (antibody, V domains shown)
VH: QVQLQESGPGLVKPSETLSLTCSVSGGFTSSYYWSWIRQAPGKGLEWIGYVYYGESTDYNPSLKSRATISIDTSKNQFSLKLSSVTAADTAVYYCAREVDKRGFDYWGQGALVTVSS
VL: EIVLTQSPGTLSLSPGERATLSCRASQSVSGGYLAWYQQEPGQAPRLVIYGASSRATGIPDRFSASGSGTDFTLTITRLEPEDFAVYYCQQYGRTPLTFGGGTKVEIK
notes: human IgG; also called 8J16-biotin

Columns and labels:
[1] = molecular target: T1, hCMV gH + gL + UL128 + UL130 + UL131A (5-member complex; HEK293T co-transfectant) (hCMV, UniProt P12824 24-743; P16832 31-278; P16837 1-171; P16772 1-214); experiment: cell competition; competitor 2F4-biotin
T1 construct: whole, on cells; in the functional rows it stands for the complex on virions or transduced cells of the strain or isolate named in the readout; also called gH/gL/UL128-131A complex; pentameric complex

[2] = molecular target: T1, hCMV gH + gL + UL128 + UL130 + UL131A …; experiment: cell competition; competitor 8I21-biotin
[3] = molecular target: T2, hCMV UL128 + UL130 + UL131A (HEK293T co-transfectant) (hCMV, UniProt P16837 1-171; P16772 1-214); experiment: cell-based or functional assay
[4] = molecular target: T1, hCMV gH + gL + UL128 + UL130 + UL131A …; experiment: cell competition; competitor 6G4-biotin
[5] = molecular target: T1, hCMV gH + gL + UL128 + UL130 + UL131A …; experiment: cell competition; competitor 1F11-biotin
[6] = molecular target: T1, hCMV gH + gL + UL128 + UL130 + UL131A …; experiment: cell competition; competitor 8J16-biotin
[7] = molecular target: T2, hCMV UL128 + UL130 + UL131A (HEK293T …); experiment: cell-based or functional assay; remark: listed apart in the source
[8] = molecular target: T1, hCMV gH + gL + UL128 + UL130 + UL131A …; experiment: cell competition; competitor 9I6-biotin
[9] = molecular target: T1, hCMV gH + gL + UL128 + UL130 + UL131A …; experiment: cell competition; competitor 4I22-biotin
[10] = molecular target: T1, hCMV gH + gL + UL128 + UL130 + UL131A …; experiment: cell competition; competitor 8C15-biotin
[11] = molecular target: T1, hCMV gH + gL + UL128 + UL130 + UL131A …; experiment: cell competition; competitor 2C12-biotin
[12] = molecular target: T1, hCMV gH + gL + UL128 + UL130 + UL131A …; experiment: cell competition; competitor 10F7-biotin
[13] = molecular target: T1, hCMV gH + gL + UL128 + UL130 + UL131A …; experiment: cell competition; competitor 15D8-biotin
[14] = molecular target: T1, hCMV gH + gL + UL128 + UL130 + UL131A …; experiment: cell competition; competitor 4N10-biotin
[15] = molecular target: T1, hCMV gH + gL + UL128 + UL130 + UL131A …; experiment: cell competition; competitor 5A2-biotin
[16] = molecular target: T3, hCMV glycoprotein B (gB; HEK293T transfectant) (hCMV, UniProt P06473 32-906); experiment: cell competition; competitor 2B11-biotin
T3 construct: whole, on cells; in the functional rows it stands for gB on virions or transduced cells of the strain or isolate named in the readout

[17] = molecular target: T3, hCMV glycoprotein B (gB; HEK293T …); experiment: cell competition; competitor 5F1-biotin
[18] = molecular target: T3, hCMV glycoprotein B (gB; HEK293T …); experiment: cell-based or functional assay
[19] = molecular target: T3, hCMV glycoprotein B (gB; HEK293T …); experiment: cell competition; competitor 10C6-biotin
[20] = molecular target: T3, hCMV glycoprotein B (gB; HEK293T …); experiment: cell competition; competitor 4H9-biotin
[21] = molecular target: T3, hCMV glycoprotein B (gB; HEK293T …); experiment: cell competition; competitor 6B4-biotin
[22] = molecular target: T3, hCMV glycoprotein B (gB; HEK293T …); experiment: cell competition; competitor 7H3-biotin

T3 sequence (P06473 32-906 limits assumed): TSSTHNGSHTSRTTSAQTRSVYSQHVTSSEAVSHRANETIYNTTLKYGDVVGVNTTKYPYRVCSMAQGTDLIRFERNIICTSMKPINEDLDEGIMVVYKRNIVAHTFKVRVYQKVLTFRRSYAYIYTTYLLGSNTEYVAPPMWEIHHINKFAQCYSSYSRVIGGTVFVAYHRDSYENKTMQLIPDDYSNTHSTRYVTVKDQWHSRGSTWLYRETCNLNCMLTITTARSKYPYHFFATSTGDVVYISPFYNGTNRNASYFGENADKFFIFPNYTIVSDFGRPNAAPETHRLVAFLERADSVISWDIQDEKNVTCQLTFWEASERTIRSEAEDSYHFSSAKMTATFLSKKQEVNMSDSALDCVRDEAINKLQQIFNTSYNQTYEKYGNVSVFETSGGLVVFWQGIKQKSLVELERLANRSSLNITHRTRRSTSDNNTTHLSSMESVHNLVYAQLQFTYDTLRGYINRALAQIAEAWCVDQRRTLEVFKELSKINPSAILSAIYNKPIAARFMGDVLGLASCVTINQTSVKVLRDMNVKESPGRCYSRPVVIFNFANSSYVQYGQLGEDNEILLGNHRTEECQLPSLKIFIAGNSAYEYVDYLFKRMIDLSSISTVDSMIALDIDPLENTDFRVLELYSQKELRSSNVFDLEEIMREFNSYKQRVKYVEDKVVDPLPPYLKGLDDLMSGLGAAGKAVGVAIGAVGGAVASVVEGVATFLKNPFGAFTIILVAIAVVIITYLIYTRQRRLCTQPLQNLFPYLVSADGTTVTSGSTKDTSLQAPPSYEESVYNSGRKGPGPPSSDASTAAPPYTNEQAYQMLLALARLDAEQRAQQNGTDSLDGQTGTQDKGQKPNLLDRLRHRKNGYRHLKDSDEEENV
T2 sequence (P16837 whole entry, chain 1 of 2): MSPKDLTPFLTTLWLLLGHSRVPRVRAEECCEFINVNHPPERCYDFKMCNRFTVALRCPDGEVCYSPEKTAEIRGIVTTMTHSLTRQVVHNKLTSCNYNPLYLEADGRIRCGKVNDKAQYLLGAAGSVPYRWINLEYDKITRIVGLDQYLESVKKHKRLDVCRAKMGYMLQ
T2 sequence (P16772 whole entry, chain 2 of 2): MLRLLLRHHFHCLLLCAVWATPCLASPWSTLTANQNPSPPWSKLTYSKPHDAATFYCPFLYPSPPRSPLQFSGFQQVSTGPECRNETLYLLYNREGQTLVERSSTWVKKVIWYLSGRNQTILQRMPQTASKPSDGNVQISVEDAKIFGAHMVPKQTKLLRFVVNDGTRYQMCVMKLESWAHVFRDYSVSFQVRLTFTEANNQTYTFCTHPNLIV

Row | Binder | Inhibition of binding (%) [1] [%] | Inhibition of binding (%) [2] [%] | 50% neutralization VR1814, ARPE [3] [µg/mL] | 50% neutralization VR1814, MRC-9 [3] [µg/mL] | Inhibition of binding (%) [4] [%] | Inhibition of binding (%) [5] [%] | Inhibition of binding (%) [6] [%] | 90% neutralization VR1814, ARPE [7] [µg/mL] | 90% neutralization VR1814, MRC-9 [7] [µg/mL] | Inhibition of binding (%) [8] [%] | Inhibition of binding (%) [9] [%] | Inhibition of binding (%) [10] [%] | Inhibition of binding (%) [11] [%] | also measured
1 | B1 | 0 | 0 | < 0.001 | > 2 | 100 | 0 | 100 | 0.0007 | > 10 | 100 | 0 | 100 | 100 | –
2 | B2 | – | 0 | < 0.001 | > 2 | 100 | – | 100 | 0.0025 | > 10 | 100 | 0 | 100 | 100 | –
3 | B3 | 0 | 0 | < 0.01 | ≤ 2 | 100 | 0 | 100 | 0.006 | > 10 | 100 | 0 | 100 | 100 | Inhibition of binding (%) [12]: 0%; Inhibition of binding (%) [13]: 0%; Inhibition of binding (%) [14]: 0%; Inhibition of binding (%) [15]: 0%
4 | B4 | – | – | – | – | – | – | – | – | – | – | – | – | – | Inhibition of binding (%) [16]: 100%; Inhibition of binding (%) [17]: 100%; 90% neutralization VR1814, ARPE [18]: 0.2 µg/mL; 90% neutralization VR1814, MRC-9 [18]: 0.75 µg/mL; Inhibition of binding (%) [19]: 100%; Inhibition of binding (%) [20]: 100%; Inhibition of binding (%) [21]: 0%; Inhibition of binding (%) [22]: 0%
5 | B5 | – | 0 | < 0.01 | > 2 | 0 | 0 | 0 | 0.008 | > 10 | 0 | – | 0 | 0 | –
6 | B6 | 0 | 0 | < 0.001 | > 2 | 100 | 0 | 100 | 0.0008 | > 10 | 70 | 0 | 100 | 100 | –
